Assay results as given in PMC12452654.

Legend:
[1] = molecular target: HtpG from Synechococcus elongatus PCC 7942 (Synechococcus elongatus PCC 7942); assay: SEC; Superdex 200 16/60, 40 mM HEPES-KOH pH 7.5, 150 mM KCl, 0.5 mM TCEP, 0.5 mL/min; peak at 65 mL, close to the 158 kDa IgG standard
[2] = molecular target: HtpG from Synechococcus elongatus PCC 7942 (Synechococcus elongatus PCC 7942); assay: AUC; sedimentation velocity, 45,000 rpm, 20 °C, 4 µM seHtpG, 40 mM HEPES-KOH pH 7.5, 150 mM KCl, 1 mM β-mercaptoethanol, absorbance at 280 nm

HtpG from Synechococcus elongatus PCC 7942 (natural protein)
stoichiometry N [1]: 2
stoichiometry N [2]: 2
